Assay results as given in PMC9674263 (Proceedings of the National Academy of Sciences of the …, 2022).

Biological target: the molecule itself
Assay: native gel or EMSA

B1: endogenous PLOD2 of HCC38 cells (enzyme, human (endogenous in HCC38), UniProt O00469 26-737, looked up)
chain: ADSEKPSSIPTDKLLVITVATKESDGFHRFMQSAKYFNYTVKVLGQGEEWRGGDGINSIGGGQKVRLMKEVMEHYADQDDLVVMFTECFDVIFAGGPEEVLKKFQKANHKVVFAADGILWPDKRLADKYPVVHIGKRYLNSGGFIGYAPYVNRIVQQWNLQDNDDDQLFYTKVYIDPLKREAINITLDHKCKIFQTLNGAVDEVVLKFENGKARAKNTFYETLPVAINGNGPTKILLNYFGNYVPNSWTQDNGCTLCEFDTVDLSAVDVHPNVSIGVFIEQPTPFLPRFLDILLTLDYPKEALKLFIHNKEVYHEKDIKVFFDKAKHEIKTIKIVGPEENLSQAEARNMGMDFCRQDEKCDYYFSVDADVVLTNPRTLKILIEQNRKIIAPLVTRHGKLWSNFWGALSPDGYYARSEDYVDIVQGNRVGVWNVPYMANVYLIKGKTLRSEMNERNYFVRDKLDPDMALCRNAREMGVFMYISNRHEFGRLLSTANYNTSHYNNDLWQIFENPVDWKEKYINRDYSKIFTENIVEQPCPDVFWFPIFSEKACDELVEEMEHYGKWSGGKHHDSRISGGYENVPTDDIHMKQVDLENVWLHFIREFIAPVTLKVFAGYYTKGFALLNFVVKYSPERQRSLRPHHDASTFTINIALNNVGEDFQGGGCKFLRYNCSIESPRKGWSFMHPGRLTHLHEGLPVKNGTRYIAVSFIDP
Question: For B1, which “stoichiometry N” value is on record?
Answer: 2
